Read-outs that look alike come from different tables or passages of the source.
What was measured:
[1] = target: human MSLN protein endogenously expressed on tumor cells (Hela, OVCAR3) (human) (UniProt Q13421); assay: FACS, OVCAR3 cells, antibody 0.2 nM
[2] = target: monkey MSLN full-length protein on HEK293T cells (monkey); assay: FACS, HEK293T-monkey-MSLN cells, antibody 100 nM
[3] = target: monkey MSLN full-length protein on HEK293T cells (monkey); assay: FACS, HEK293T-monkey-MSLN cells, antibody 0.8 nM
[4] = target: monkey MSLN full-length protein on HEK293T cells (monkey); assay: FACS, HEK293T-monkey-MSLN cells, antibody 0.00128 nM
[5] = target: monkey MSLN full-length protein on HEK293T cells (monkey); assay: FACS, HEK293T-monkey MSLN cells
[6] = target: human MSLN protein endogenously expressed on tumor cells (Hela, OVCAR3) (human) (UniProt Q13421); assay: FACS, OVCAR3 cells, antibody 100 nM
[7] = target: human MSLN protein endogenously expressed on tumor cells (Hela, OVCAR3) (human) (UniProt Q13421); assay: FACS, Hela cells
[8] = target: human MSLN-R3-rFc protein (human) (UniProt Q13421); assay: ELISA, antibody 100 nM
[9] = target: human MSLN full-length protein on transfected cells (CHO-K1-hMSLN clones 2C8, 2D11, 2C5; HEK293T-hMSLN clones B8, 2A4, 2A7) (human) (UniProt Q13421); assay: FACS, CHO-K1-hMSLN-2C8 cells, antibody 100 nM
Chain of human MSLN full-length protein on transfected cells (CHO-K1-hMSLN clones 2C8, 2D11, 2C5; HEK293T-hMSLN clones B8, 2A4, 2A7) (human) (Q13421 other isoform, or with tags, fused parts or gaps limits assumed): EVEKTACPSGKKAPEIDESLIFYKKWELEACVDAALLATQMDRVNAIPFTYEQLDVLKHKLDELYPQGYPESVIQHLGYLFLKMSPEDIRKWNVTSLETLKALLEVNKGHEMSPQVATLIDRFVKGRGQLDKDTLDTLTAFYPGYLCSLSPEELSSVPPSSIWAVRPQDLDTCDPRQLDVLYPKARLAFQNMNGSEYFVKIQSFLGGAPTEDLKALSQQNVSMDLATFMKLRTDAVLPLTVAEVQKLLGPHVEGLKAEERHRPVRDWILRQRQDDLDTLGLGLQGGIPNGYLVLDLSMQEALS

[10] = target: human MSLN full-length protein on transfected cells (CHO-K1-hMSLN clones 2C8, 2D11, 2C5; HEK293T-hMSLN clones B8, 2A4, 2A7) (human) (UniProt Q13421); assay: FACS, CHO-K1-hMSLN-2C8 cells, antibody 0.00128 nM
[11] = target: human MSLN full-length protein, recombinant, on CHO-K1 or HEK293T cells (human) (UniProt Q13421); assay: competitive FACS on CHO-K1-human MSLN-2C8 cells vs Biotin-Tab131; competitor at 1.6 nM
Chain of human MSLN full-length protein, recombinant, on CHO-K1 or HEK293T cells (human) (Q13421 other isoform, or with tags, fused parts or gaps limits assumed): as above

[12] = target: human MSLN protein endogenously expressed on tumor cells (Hela, OVCAR3) (human) (UniProt Q13421); assay: FACS, OVCAR3 cells, antibody 0.16 nM
[13] = target: human MSLN full-length protein, recombinant, on CHO-K1 or HEK293T cells (human) (UniProt Q13421); assay: competitive FACS on CHO-K1-human MSLN-2C8 cells vs Biotin-Tab142; competitor at 0.032 nM
[14] = target: human MSLN full-length protein on transfected cells (CHO-K1-hMSLN clones 2C8, 2D11, 2C5; HEK293T-hMSLN clones B8, 2A4, 2A7) (human) (UniProt Q13421); assay: FACS, CHO-K1-hMSLN-2C8 cells, antibody 4 nM
[15] = target: human MSLN full-length protein, recombinant, on CHO-K1 or HEK293T cells (human) (UniProt Q13421); assay: FACS, HEK293T-hMSLN-B8 cells, antibody 20 nM
[16] = target: human MSLN full-length protein, recombinant, on CHO-K1 or HEK293T cells (human) (UniProt Q13421); assay: competitive FACS on CHO-K1-human MSLN-2C8 cells vs Biotin-Tab131; competitor at 0.32 nM
[17] = target: monkey MSLN full-length protein on HEK293T cells (monkey); assay: FACS, HEK293T-monkey-MSLN cells, antibody 4 nM
[18] = target: human MSLN-R3-rFc protein (human) (UniProt Q13421); assay: ELISA, antibody 1 nM
[19] = target: monkey MSLN full-length protein on HEK293T cells (monkey); assay: FACS, HEK293T-monkey-MSLN cells, antibody 0.0064 nM
[20] = target: human MSLN full-length protein, recombinant, on CHO-K1 or HEK293T cells (human) (UniProt Q13421); assay: competitive FACS on CHO-K1-human MSLN-2C8 cells vs Biotin-Tab142; competitor at 0.064 nM
[21] = target: monkey MSLN full-length protein on HEK293T cells (monkey); assay: FACS, HEK293T-monkey-MSLN cells, antibody 0.032 nM
[22] = target: human MSLN full-length protein, recombinant, on CHO-K1 or HEK293T cells (human) (UniProt Q13421); assay: competitive FACS on CHO-K1-human MSLN-2C8 cells vs Biotin-Tab131; competitor at 200 nM
[23] = target: human MSLN protein endogenously expressed on tumor cells (Hela, OVCAR3) (human) (UniProt Q13421); assay: FACS, OVCAR3 cells
[24] = target: chimeric human MSLN-R3 / chicken MSLN-R1-2 protein on HEK293T cells (clone A5) (chicken; human); assay: FACS, HEK293T-chickR1-2/hR3-A5 cells
Chain of chimeric human MSLN-R3 / chicken MSLN-R1-2 protein on HEK293T cells (clone A5) (chicken; human) (Q13421 495-614, change not shown): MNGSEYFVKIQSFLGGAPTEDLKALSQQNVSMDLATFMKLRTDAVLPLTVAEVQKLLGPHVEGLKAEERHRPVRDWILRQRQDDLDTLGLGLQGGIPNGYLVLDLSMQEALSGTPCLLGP

[25] = target: human MSLN full-length protein on transfected cells (CHO-K1-hMSLN clones 2C8, 2D11, 2C5; HEK293T-hMSLN clones B8, 2A4, 2A7) (human) (UniProt Q13421); assay: FACS, CHO-K1-hMSLN-2C8 cells, antibody 20 nM
[26] = target: human MSLN full-length protein, recombinant, on CHO-K1 or HEK293T cells (human) (UniProt Q13421); assay: competitive FACS on CHO-K1-human MSLN-2C8 cells vs Biotin-Tab142; competitor at 200 nM
[27] = target: monkey MSLN full-length protein on HEK293T cells (monkey); assay: FACS, HEK293T-monkey MSLN cells; remark: listed apart in the source
[28] = target: human MSLN full-length protein, recombinant, on CHO-K1 or HEK293T cells (human) (UniProt Q13421); assay: competitive FACS on CHO-K1-human MSLN-2C8 cells vs Biotin-Tab142; competitor at 40 nM
[29] = target: human MSLN full-length protein, recombinant, on CHO-K1 or HEK293T cells (human) (UniProt Q13421); assay: competitive FACS on CHO-K1-human MSLN-2C8 cells vs Biotin-Tab142; competitor at 0.16 nM

Chain of human MSLN protein endogenously expressed on tumor cells (Hela, OVCAR3) (human) (Q13421 other isoform, or with tags, fused parts or gaps): as the sequence (Q13421 other isoform, or with tags, fused parts or gaps limits assumed) above, with P14R counted along it

What does the source list for hIgG1 (antibody)?
MFI [1]: 106; FACS signal (MFI) [2]: 127; FACS signal (MFI) [3]: 87; FACS signal (MFI) [4]: 84; Max MFI [5]: 137; FACS signal (MFI) [6]: 93; Max MFI [7]: 75; OD450 nm [8]: 0.21; FACS signal (MFI) [9]: 72; FACS signal (MFI) [10]: 116; MFI of Biotin-Tab131 [11]: 12600; FACS signal (MFI) [12]: 74; MFI of Biotin-Tab142 [13]: 43700; FACS signal (MFI) [14]: 110; MFI [15]: 68; MFI of Biotin-Tab131 [16]: 12700; FACS signal (MFI) [17]: 85; OD450 nm [18]: 0.09; FACS signal (MFI) [19]: 85; MFI of Biotin-Tab142 [20]: 23600; FACS signal (MFI) [21]: 125; MFI of Biotin-Tab131 [22]: 12900; Max MFI [23]: 147; Max MFI [24]: 115; FACS signal (MFI) [25]: 156; MFI of Biotin-Tab142 [26]: 24000; Max MFI [27]: 104; MFI of Biotin-Tab142 [28]: 23600; MFI of Biotin-Tab142 [29]: 43600

— US20240124563A1
